# Reference: the nanobody polyreactivity screen of Harvey et al. (2022)
# Assay: yeast display, Sf9 membrane polyspecificity reagent, FACS + sequencing; frameworks hold sequencing errors
# In short: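 Nanobodies came from a synthetic yeast display library in Saccharomyces cerevisiae BJ5465, induced with galactose for 36–48 hours and stained for 1 hour at 4 °C with 10% biotinylated, detergent-solubilized Sf9 membrane reagent. Cells were enriched on streptavidin microbeads and then FACS-sorted, with low and high (top ~1%) gates set on anti-HA fluorescence for expression and streptavidin fluorescence for reagent binding. Each polyreactivity label reflects the gate a clone came from. Genes were amplified by colony PCR, sequenced by MiSeq 2 × 250 and filtered by CDR length.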
sequence,measurement,value
QVQLVESGGGLVQAGGSLRLSCAASGRTFTRYPMGWYRQAPGKERELVAAITRGGSTYADSVKGRFTISRDNAKNTVYLQMNSLKPEDTAVYYCAAYWGFYPWRAYPYDYWGQGTQVTVSS,polyreactivity (PSR sort gate),high polyreactivity
QVQLVESGGGLVQAGGSLSLMCAASGGIFPRYTRGWYRQAPGKEREMVASISRSGASTYYADSVKGRFTISRDNAKNTVYLQMNSLKTEDTAVYYCNARFVTGYWYIWENYWGQGTQVTVSS,polyreactivity (PSR sort gate),high polyreactivity
QVQLVESGGGLVQAGGSLRLSCAASGSTFDVNAMGWYRQAPGKERELVADITSGGSTNYADSVKGRFTISRDNAKNTVYLQMNSLKREDTAVYYCARDDWFGFIRVQEMDYWGQGTQVTVSS,polyreactivity (PSR sort gate),low polyreactivity
QVQHVESGGGLVQAGGSLRLSCAASGRIFGRNNMGWYRQAPGKERELVAAISSSGGSTRYADSVKGRFTISRDNAKNTVYLQMNSLKPEDTGVYYCAARRAYYYEGGYDYWGQGTQVTVSS,polyreactivity (PSR sort gate),high polyreactivity
QVQLVESGGGLVQAGGSLRLTCAASGRTLAKNAMGWYRQAPGKERELVAAISRRGGSTYYADSVKGRFTISRDNAKNTVYLQMNSLKPEDTAVYYCARASRQGYYQLSYDEFDYWGQGTQVTVSS,polyreactivity (PSR sort gate),high polyreactivity
QVQLVESAAGLVQAGGSLRLSCAASGSNFYGNAMGWYRQAPGKERELVAAIRWRGGRTYYADSVKGRFTISRDNAKNTVYLQMNSMKPEDTAVYYCNALPGVSHTQYDRVGYWGQGTQVTVSS,polyreactivity (PSR sort gate),high polyreactivity
QVQLVESGGGLVQAGGSLRLSCAASGRIFTKYAMGWYRQAPGKERELVAAISWSGGRTYYADSVKGRFTISRDNAKNTVYLQMNSLKPEDTAVYYCAAESYKTATLGEDYWGQGTQVTVSS,polyreactivity (PSR sort gate),high polyreactivity
QVQLVESGGGLVQAGGSLRLSCAASGSIFSWYAMAWYRQAPGKETELVADITWTVGSTYYADSVKGRFTISRDNAKNPVYLQMNSLIPEDTAVYYWAARRVVYRYYWYSAYDYSGQGTQVTVSS,polyreactivity (PSR sort gate),high polyreactivity
QVQLQESGGGLVQAGGSLRLSCAASGSISYPRTMGWYRQAPGKEREFVAGIGVGGTTYYADSVKGRFTISRDNAKNTVYLQMHSLKPEDAAVFYFAVAAFYDKYYVYWGQGTQVTVSC,polyreactivity (PSR sort gate),low polyreactivity
QVHLVESGGVLVQAGGSLRLSCAASGSTFLYYAMGRYRQAPGKEREFVASISGSGGSTNYADSVKGRFTISRDNAKNTVSLQMNSLKPEDTAVYYCAKEYVTEFQGYYDWGQGSQVTVSS,polyreactivity (PSR sort gate),low polyreactivity
QVQLVESGGGLVQAGGSLRLSCAASGFTFPYYAMGWYRPAPGKERELVAAISRNGGSTYYADSVKGRFTISRDNAKNTVYFQMNRLKPEDTAVYYCNKKWLGWADPSLDKRYDYWGQGTQVTVSS,polyreactivity (PSR sort gate),high polyreactivity
QVQLVESGGGLVQAGGSLRLSCAASGPTFRYYAMGWYRQAPGKERELVATITGSGGSTYYADSVKGRFTISRDNAKNTVYLQMNSLKPEDTAVYYCNARKVRYPYRWYDYWGQGTQVTVSS,polyreactivity (PSR sort gate),high polyreactivity
QVQLVESGGGLVQAGGSLRLSCAASGLTFVWYSMGWYRHAPGKERELVAGITSGGRTYYADSVKGRFTISRDNAKNTVYLQMNRLKPEDTAVYYCAAYGNYNEYDSWGQGTQVSVSS,polyreactivity (PSR sort gate),high polyreactivity
QVQLVESGGGLVQAGGSLRLSCAASGSIFDSYAMGWYRQAPGKERELVASISYRGGSTYYADSVKGRFTISRDNAKNTVYLQMNSLKPEDTAVYYCAATPGYHYRSWRYYYWGQGTQVTVSS,polyreactivity (PSR sort gate),high polyreactivity
QVQLVESGGRLVQAGGSLRLSCAASGLTFGRYAMGWYSQAPGKERELVASISQRGGSSYYADSVKGRFTISRDNAKNTVFLQMNSLKPEDTAVYYCNARVRDIYRYSMDSWGQGTQVTVSS,polyreactivity (PSR sort gate),low polyreactivity
QVQLVESGGGLVQAGGSLRLSCAASGSTFWQYALGWYRQAPGKEREFVAAISSRGGSTYYADSVKGRFTISRDNAKNTVYLQMNSLKPEDTAVYYCAAQNYFAFIRTYRYVHRPTYYYWGQGTQVTVSS,polyreactivity (PSR sort gate),high polyreactivity
QVQLVESGGGLVQAGGSLSLSCAASGLTFSWYTMGWYRPAPGKERELVAAISWSGVSTYYADSVMGRFTISRDNAKNTVYLQMNSLKPEDTAVYYCAAAKTGRGRGTTGYGYWGQGTQVTVSS,polyreactivity (PSR sort gate),high polyreactivity
QVQLVESGGGLVQAGGSLRLSCGGSGNSFNSYALGWYRQAPGKEREFVAAISGSGSSTYYADSVMGRFTISRDNAKNTVYLQINSLKPEDTAVYYCAVPYYKRYIWSNRDYWGQGTQVTVSS,polyreactivity (PSR sort gate),high polyreactivity
QVQLVESGGGLVQAGGSLRLSCAASGSIFIAYGMGWYRQEPGKERELVAAITVSGGNTYYADSVKGRFTISRDNAKNTVYLQMNSLKPEDNAVYYCADVTYWQDGHRGNYWGQGTQVTVSS,polyreactivity (PSR sort gate),low polyreactivity
QVQLVESGGGLVQAGGSLRLSCAASGRTFTSYAMGWYRQAPGKERELVATISWSGGSTYYADSVKGRFTISRDNAKNTVYLQMNSLKPEDTAVYYCAALKPWTTGYGDRFDYWGQGTQVTVSS,polyreactivity (PSR sort gate),low polyreactivity
QVQLVESGGCLFQAGGSLRLICAASGSISGLYAIGWYRQAPGKERELVARIRWRGDSTYYADSVKGRFTISRDNAKNTVYLQMNSLKPEDTAVYYCAASAYSGKVNKYNYWGQGTQVTVSS,polyreactivity (PSR sort gate),high polyreactivity
QVQLVESGGGLVQAGGSLRLSCAASGFTLRVNAMGWYRQAPGKERELVAAISDSGTNTYYADSVKGRFTISRDNAKNTVYLQMNSLKPEDTAVYYCATAVYLVIFEYDYWGQGTQVTVSS,polyreactivity (PSR sort gate),low polyreactivity
QVQLVESAGGLVQAGGSLRLSCAASGRIFYYNAMGWYRQAPGKERELVAGITSRGGSTYADSVKGRFTISRDNAKNTVYLQMNSLKPEDTAVYYCAAVYRLWGKDYDYWGQGTQVTVSS,polyreactivity (PSR sort gate),high polyreactivity
QVQHVESGGGLVQAGGSLRLSCASSGSIFYFYAKGWYRQAPGKERELVAAISWSGGSTYYADSVKGRFTISRDNAKNTFYLQMNSLKPEDTAVYYCNAADYWYWENDYWGQGTQVTVSS,polyreactivity (PSR sort gate),low polyreactivity
QVQLVESGGGLVQAGGSLRLSCAASGRTIFYNAMGWYRQAPGKERELVAAINWRGGSTYYADSVKGRFTISRDIAKNTVYLQMNSLKPEDTAVYYCAARNVYVWYDYWGQGTQVTVSS,polyreactivity (PSR sort gate),low polyreactivity
QVQLVESGGGLVQAGGSLRLSCAASGIIIRKYAMGWYRQAPGKERELVAAITTRGSRTYYADSVKGRFTISRDNAKNTVYLQMNSLKPEDTAVYYCAADFGYAWWWYDTYGYWGQGTQVTVSS,polyreactivity (PSR sort gate),high polyreactivity
QVQLVESGGGLVQAGGSLRLSCAASGRIFPGNAMGWYRQAPGKERELVATITESDSSTYYADSVKGRFTISRDNAKNTVYLQMNSLKPDDTAVYYFAAGPSVYWRYDYWGQGTQVTVSS,polyreactivity (PSR sort gate),low polyreactivity
QVQLVESGGGLVQAGGSLRLSCAASGSTFLGYAMGWYRQAPGKERELVAAITYRGTRTYYADSVKGRFTISRDYAKNTVYLQMNSLKPEDTTVYYCAADRYIGTVEYDYWGQGTQVTVSS,polyreactivity (PSR sort gate),high polyreactivity
QVQLVESGGGLVQAGGSLRLSCAASGSIFYFNAMGWYRQAPGKERQLVAAITSGGNTYYADSVKGRFTISRDNAKNTVYLQMNSLKPEDTAVYYCAKRGFRFPYPSLDYWGQGTQVTVSS,polyreactivity (PSR sort gate),low polyreactivity
QVQLVESGGGLVQAGGSLRLSCAASGTFYLYAMGWYRQAPGKERELVAAISGSGSTNYADSVKGRFTISRDNAKNTVYLQMNSLKPEDTAVYYCAAYQRYDSVTGARYEYDYWGQGTQVTVSS,polyreactivity (PSR sort gate),low polyreactivity
QVQLVESGGGLVQAGGSLRLSCAASGRTFRTNAMAWYRQAPGKERELVAAITSDGTYYADSVKGRFTISRDNAKNTVYLQMNSLKPEDTAVYYWNVDDRENRDDYWGQGTQVTVSS,polyreactivity (PSR sort gate),low polyreactivity
QVRLVESGGGLVQAGGSLRLTCAASGSTFTTYALGWYRQAPGKERELVAAISSGGDTKYADSVKGRFTISRDNAKNTIYLQMNSLIPEDTAVYYCAKRRYYRYYYWGQGTQVTVSS,polyreactivity (PSR sort gate),high polyreactivity
QVQLVESGGGLVQAGGSLRLSCAASGFIFDSYAMGWYRPAPGKERELVATITKGGGRTYYADSVKGRFTISRDNAKNTVYLQMNSLKPEDTAVYYCNARGFSRRKGLDYWGQGTQVTVSS,polyreactivity (PSR sort gate),low polyreactivity
QVQLVESVGGLVQAGGSLRLSCAASGSTFPVYVMGWYRQAPGKERELVAAITRIGGSTYYADSVKGRFTISRDNAKNTVYLQMNSLKPEDTAVYYCAAGGTARDDSWGQGTQVTVSS,polyreactivity (PSR sort gate),low polyreactivity
QVHLVESGGGLVQAGGSLRLSCAASGSTFGRYTMGWYRQAPGKERELVAAITSGGGSTYYADSVKGRFTISRDNAKNTVYLQMNSLKPEDTAVYYCAARSLVQDHAYGYNYWGQGTQVTVSS,polyreactivity (PSR sort gate),low polyreactivity
QVQLVESGGGLVQAGGSLRLSCAASGSTFPHNPMGWYRQQPGKERELVAAISVGGGSKHYADSVKGRFTISRDNAKNTVYFQMNSLKPEDTAVYYCAKDYAYQYSFVTYDYWGQGTLVTVSS,polyreactivity (PSR sort gate),low polyreactivity
QVQLVESGGGLVQAGGSLRLSCAASGSIFSGYTMGWYRQAPGQERELVAAISYRGGRTYYADSVKGRFTISRDNAKNTVYLQMNSLKPEDTAVYYCNAAPYITRRHDYWGQGTQVTVSS,polyreactivity (PSR sort gate),high polyreactivity
QVQLVESGGGLVQAGGSLRLSCAASGFIFVYYAMGWYRQAPGKERELVAAINQSGGRTYYADSVKGRFTISRDNAKNTVYLQMNSLKPEDTAVYYCAAESWDLYRYGQKHEYWGQGTQVTVSS,polyreactivity (PSR sort gate),low polyreactivity
QVQLVESGGGLVQAGGSLRLSCAASGYIFLTNAMGWYRQAPGKEREWVAAISVSGGRTYYADSVKGRFTISRDNAKNTVYLQMNSLKPEDTAVYYCNTLLTYGYDYWGQGTQVTVSS,polyreactivity (PSR sort gate),low polyreactivity
QVQLVESGGGLVQAGGRLRLSCAASGSIYPDKAMGWYRQAPGKERELVAAIDKGTGSTNYADSVKGRFTISRDNAKITVNLQLNSLKPEDTAVYYCAKGWLTPRGGAWYDDYWGQGTQVTVSS,polyreactivity (PSR sort gate),low polyreactivity
QVQLEESGGGLVQAGGSLRLSCAASGRTFTHYAMGWYRQAPGRERELVAGITRSGGITYYADSVKGRFTISRDNANNTVYLQMNSLKPEDTAVYYCNAGFHGLAYFLKPEYDYWGQGTQVTVSS,polyreactivity (PSR sort gate),low polyreactivity
QVQLVESGGGLVQAGGSLRLSCAASGSIFLSNAMGWYRQAPGKEREMVAIRKSTGSTYYADSVKGRFTISRDNAKNTVYLQMYSLKPEDTAVYYCNAGGWNAYRYRAYDYGGQGTQVTVSS,polyreactivity (PSR sort gate),high polyreactivity
QVQLVESGGGLVQAGGSLRLSCAASGFTFLKNAMGWYRQAPGKERELVAAITSSGGRTYYADSVKGRFTISRDNAKNTVYLQMNSLKPEDTAVYYCAADHTHGYVLYYNDNYWGQGTQVTVSS,polyreactivity (PSR sort gate),high polyreactivity
